Measured values from paper PMC6868016.

Experiments:
[1] = molecular target: ACP-GluA1 (GluA1 tagged with the acyl carrier protein at its N-terminus) (mouse); assay: single-molecule fluorescence tracking (TIRF), colocalization durations, simultaneous two colours; living HEK293 cells, plasma membrane, TARP2-mGFP with ATTO594-labelled ACP-GluA1 or ACP-GluA2 monomers and homodimers; lifetimes corrected for photobleaching
[2] = molecular target: ACP-GluA2 (GluA2 tagged with the acyl carrier protein at its N-terminus), P23819; assay: as above; conditions: remark: other sources report otherwise
Sequence of ACP-GluA2 (GluA2 tagged with the acyl carrier protein at its N-terminus), P23819 (P23819 25-883): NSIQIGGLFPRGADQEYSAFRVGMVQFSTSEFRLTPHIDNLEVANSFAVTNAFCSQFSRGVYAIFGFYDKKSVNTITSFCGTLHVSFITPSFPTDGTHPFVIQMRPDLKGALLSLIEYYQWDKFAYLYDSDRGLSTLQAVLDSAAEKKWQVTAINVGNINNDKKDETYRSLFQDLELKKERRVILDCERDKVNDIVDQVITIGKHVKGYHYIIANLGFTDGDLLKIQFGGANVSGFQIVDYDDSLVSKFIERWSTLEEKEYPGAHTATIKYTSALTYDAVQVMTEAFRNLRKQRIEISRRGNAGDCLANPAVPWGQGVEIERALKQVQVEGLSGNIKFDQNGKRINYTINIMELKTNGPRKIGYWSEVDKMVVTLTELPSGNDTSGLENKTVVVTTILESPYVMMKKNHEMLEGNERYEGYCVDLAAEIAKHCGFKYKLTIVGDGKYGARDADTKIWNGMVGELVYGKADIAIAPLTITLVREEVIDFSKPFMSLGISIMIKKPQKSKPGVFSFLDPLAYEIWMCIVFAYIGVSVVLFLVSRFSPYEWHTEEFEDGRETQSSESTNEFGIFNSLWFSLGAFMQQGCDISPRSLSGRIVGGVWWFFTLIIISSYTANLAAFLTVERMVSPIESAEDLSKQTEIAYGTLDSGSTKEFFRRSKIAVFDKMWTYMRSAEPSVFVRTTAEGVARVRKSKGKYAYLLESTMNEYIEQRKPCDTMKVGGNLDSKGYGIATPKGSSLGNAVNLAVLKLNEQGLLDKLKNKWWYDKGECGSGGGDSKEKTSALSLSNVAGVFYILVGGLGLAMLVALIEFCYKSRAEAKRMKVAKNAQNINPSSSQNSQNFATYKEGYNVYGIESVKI

Sequence of ACP-GluA1 (GluA1 tagged with the acyl carrier protein at its N-terminus) (mouse) (P23818 19-907): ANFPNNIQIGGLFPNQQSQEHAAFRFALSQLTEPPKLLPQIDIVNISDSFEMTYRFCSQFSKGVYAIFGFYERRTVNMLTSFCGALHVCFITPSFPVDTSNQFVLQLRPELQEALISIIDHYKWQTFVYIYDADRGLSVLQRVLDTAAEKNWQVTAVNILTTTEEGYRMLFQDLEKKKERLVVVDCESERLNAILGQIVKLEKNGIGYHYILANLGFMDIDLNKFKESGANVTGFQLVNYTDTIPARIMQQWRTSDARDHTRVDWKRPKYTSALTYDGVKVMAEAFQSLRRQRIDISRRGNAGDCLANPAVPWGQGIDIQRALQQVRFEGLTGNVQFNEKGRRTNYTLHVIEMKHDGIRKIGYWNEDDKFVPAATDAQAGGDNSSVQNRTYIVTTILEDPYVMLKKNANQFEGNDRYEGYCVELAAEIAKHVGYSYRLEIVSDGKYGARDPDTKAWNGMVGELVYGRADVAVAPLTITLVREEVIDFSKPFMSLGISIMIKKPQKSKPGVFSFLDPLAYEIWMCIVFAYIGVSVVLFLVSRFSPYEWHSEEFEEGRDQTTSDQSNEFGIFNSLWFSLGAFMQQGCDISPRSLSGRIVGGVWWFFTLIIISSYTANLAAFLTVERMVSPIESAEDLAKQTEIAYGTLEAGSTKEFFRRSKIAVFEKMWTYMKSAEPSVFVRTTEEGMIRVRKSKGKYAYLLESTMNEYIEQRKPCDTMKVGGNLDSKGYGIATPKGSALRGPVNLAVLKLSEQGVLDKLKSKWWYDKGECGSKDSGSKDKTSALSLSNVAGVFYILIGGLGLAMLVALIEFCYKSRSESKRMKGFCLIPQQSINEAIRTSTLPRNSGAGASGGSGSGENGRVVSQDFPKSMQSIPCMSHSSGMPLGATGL

| Binder | lifetime of binding (to GluA1 monomers and to GluA1 homodimers) [1] [ms] | lifetime of binding (to GluA2 monomers and to GluA2 homodimers) [2] [ms] |
| --- | --- | --- |
| TARP2-mGFP (transmembrane AMPA receptor regulatory protein 2 with mGFP fused to its C-terminus) (natural protein) MGLFDRGVQMLLTTVGAFAAFSLMTIAVGTDYWLYSRGVCKTKSVSENETSKKNEEVMTHSGLWRTCCLEGNFKGLCKQIDHFPEDADYEADTAEYFLRAVRASSIFPILSVILLFMGGLCIAASEFYKTRHNIILSAGIFFVSAGLSNIIGIIVYISANAGDPSKSDSKKNSYSYGWSFYFGALSFIIAEMVGVLAVHMFIDRHKQLRATARATDYLQASAITRIPSYRYRYQRRSRSSSRSTEPSHSRDASPVGVKGFNTLPSTEISMYTLSRDPLKAATTPTATYNSDRDNSFLQVHNCIQKDSKDSLHANTANRRTTPV | 200 | – |
| TARP2-mGFP (transmembrane AMPA receptor regulatory protein 2 with mGFP fused to its C-terminus), O88602 1-323 (natural protein, here or on the partner: ATTO594 on the ACP tag (ATTO594-Coenzyme A with ACP-synthase)) MGLFDRGVQMLLTTVGAFAAFSLMTIAVGTDYWLYSRGVCKTKSVSENETSKKNEEVMTHSGLWRTCCLEGNFKGLCKQIDHFPEDADYEADTAEYFLRAVRASSIFPILSVILLFMGGLCIAASEFYKTRHNIILSAGIFFVSAGLSNIIGIIVYISANAGDPSKSDSKKNSYSYGWSFYFGALSFIIAEMVGVLAVHMFIDRHKQLRATARATDYLQASAITRIPSYRYRYQRRSRSSSRSTEPSHSRDASPVGVKGFNTLPSTEISMYTLSRDPLKAATTPTATYNSDRDNSFLQVHNCIQKDSKDSLHANTANRRTTPV | – | 200 |
